Biological target: IMI4C4a antibody (monoclonal antibody produced from Mouse-Mouse hybridoma IMI4C4a)
Assay: competitive inhibition ELISA, peptide preincubated with IMI4C4a (333 pM), immobilized ICD4

Chain of IMI4C4a antibody (monoclonal antibody produced from Mouse-Mouse hybridoma IMI4C4a) (VH, as listed by the source, chain 1 of 2): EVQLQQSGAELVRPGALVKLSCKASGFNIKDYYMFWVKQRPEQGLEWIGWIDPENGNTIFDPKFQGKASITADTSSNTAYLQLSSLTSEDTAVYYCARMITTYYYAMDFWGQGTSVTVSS
Chain of IMI4C4a antibody (monoclonal antibody produced from Mouse-Mouse hybridoma IMI4C4a) (V domain, as listed by the source, chain 2 of 2): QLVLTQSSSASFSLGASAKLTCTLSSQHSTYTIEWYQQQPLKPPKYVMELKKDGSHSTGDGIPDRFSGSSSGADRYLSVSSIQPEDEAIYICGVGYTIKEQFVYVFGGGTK

molar ratio to the antibody at which an inhibitory effect started	molar ratio to the antibody giving significant inhibition	molar ratio to the antibody without inhibition	Binder
50 fold molar ratio relative to the antibody concentration	≥ 500 fold molar ratio relative to the antibody concentration	–	TQKAGLPSKNLTVSQNQ [ICD4_242-258 (chemically synthesized peptide)]
–	–	> 10000 fold molar ratio relative to the antibody concentration	THCHETEESTIKDSTT [ICD4_227-242 (chemically synthesized peptide)]
–	–	> 10000 fold molar ratio relative to the antibody concentration	STIKDSTTQKAGLPSK [ICD4_235-250 (chemically synthesized peptide)]

— patent US20170313770A1 (ORDER MADE MEDICAL RESEARCH, published 2017)
